Reference: PMC4463592

What was measured:
[1] = test system: preKARS2 (precursor of mitochondrial lysyl-tRNA synthetase) (Homo sapiens); assay: EMSA, Scatchard; conditions: no enolase; 0.5 uM preKARS2 (Methods print 0.5 mM); none (unmodified transcript); 20 mM Tris-HCl pH 7.5, 150 mM NaCl, 10 mM MgCl2, 5 mM DTT, 10% glycerol, 0.1 mg/mL BSA, 30 C 15 min; native 8% PAGE in 0.5x Tris-borate pH 8.3, 5% glycerol
[2] = test system: human enolase alpha (ENO1) (Homo sapiens); assay: EMSA; conditions: apparent Kd, one value given for all three isoforms; none (unmodified transcript); 20 mM Tris-HCl pH 7.5, 150 mM NaCl, 10 mM MgCl2, 5 mM DTT, 10% glycerol, 0.1 mg/mL BSA, 30 C 15 min; native 8% PAGE in 0.5x Tris-borate pH 8.3, 5% glycerol
[3] = test system: human enolase gamma (ENO2, neuronal) (Homo sapiens); assay: EMSA; conditions: apparent Kd, one value given for all three isoforms; none (unmodified transcript); 20 mM Tris-HCl pH 7.5, 150 mM NaCl, 10 mM MgCl2, 5 mM DTT, 10% glycerol, 0.1 mg/mL BSA, 30 C 15 min; native 8% PAGE in 0.5x Tris-borate pH 8.3, 5% glycerol
[4] = test system: human enolase beta (ENO3, muscle) (Homo sapiens); assay: EMSA; conditions: apparent Kd, one value given for all three isoforms; none (unmodified transcript); 20 mM Tris-HCl pH 7.5, 150 mM NaCl, 10 mM MgCl2, 5 mM DTT, 10% glycerol, 0.1 mg/mL BSA, 30 C 15 min; native 8% PAGE in 0.5x Tris-borate pH 8.3, 5% glycerol
[5] = test system: preKARS2 (precursor of mitochondrial lysyl-tRNA synthetase) (Homo sapiens); assay: EMSA; conditions: apparent Kd with human enolase gamma present; no ternary complex detected; none (unmodified transcript); 20 mM Tris-HCl pH 7.5, 150 mM NaCl, 10 mM MgCl2, 5 mM DTT, 10% glycerol, 0.1 mg/mL BSA, 30 C 15 min; native 8% PAGE in 0.5x Tris-borate pH 8.3, 5% glycerol

Substance: tRK1 (yeast tRNALys acceptor 1) T7 transcript
- Kd [1]: 300 nM
- Kd [2]: 2000 nM
- Kd [3]: 2000 nM
- Kd [4]: 2000 nM
- Kd [5]: < 20 nM
